Measured values from paper PMC10693595 (2023).

B1: human VZV neutralizing mAb 93k [modified: Cy5-conjugated] [human] / VZV glycoprotein B, wild type [varicella-zoster virus (VZV)] (parent complex)
chain 1: QVQLVQSGAEVKKPGSSVKVSCKASGGTFSNFAISWVRQAPGQGLEWMGRIMPLFVTSTYAQKFQGRVTISADASTSTAYMELSSLRSDDTAMYYCARDITAPGAAPTPLNFYGMDVWGQGTTVTVSS
chain 2: DIQMTQSPSTLSASVGDRVTITCRASQTISTWLAWYQQTPRKAPKLMIYKASILENGVPSRFSGSGSGTEFTLTISSLQPEDFATYYCQQYKSYPWTFGQGTKVEI
chain 3: VSPSSFYESLQVEPTQSEDITRSAHLGDGDEIREAIHKSQDAETKPTFYVCPPPTGSTIVRLEPTRTCPDYHLGKNFTEGIAVVYKENIAAYKFKATVYYKDVIVSTAWAGSSYTQITNRYADRVPIPVSEITDTIDKFGKCSSKATYVRNNHKVEAFNEDKNPQDMPLIASKYNSVGSKAWHTTNDTYMVAGTPGTYRTGTSVNCIIEEVEARSIFPYDSFGLSTGDIIYMSPFFGLRDGAYREHSNYAMDRFHQFEGYRQRDLDTRALLEPAARNFLVTPHLTVGWNWKPKRTEVCSLVKWREVEDVVRDEYAHNFRFTMKTLSTTFISETNEFNLNQIHLSQCVKEEARAIINRIYTTRYNSSHVRTGDIQTYLARGGFVVVFQPLLSNSLARLYLQELVRENTNHSPQKHPTRNTRSRRSVPVELRANRTITTTSSVEFAMLQFTYDHIQEHVNEMLARISSSWCQLQNRERALWSGLFPINPSALASTILDQRVKARILGDVISVSNCPELGSDTRIILQNSMRVSGSTTRCYSRPLISIVSLNGSGTVEGQLGTDNELIMSRDLLEPCVANHKRYFLFGHHYVYYEDYRYVREIAVHDVGMISTYVDLNLTLLKDREFMPLQVYTRDELRDTGLLDYSEIQRRNQMHSLRFYDIDKVVQYDSGTAIMQGMAQFFQGLGTAGQAVGHVVLGATGALLSTVHGFTTFLSNPFGALAVGLLVLAGLVAAFFAYRYVLKLKTSPMKALYPLTTKGLKQLPEGMDPFAEKPNATDTPIEEIGDSQNTEPSVNSGFDPDKFREAQEMIKYMTLVSAAERQESKARKKNKTSALLTSRLTGLALRNRRGYSRVRTENVTGV

Variants of: B1
Experiment: flow cytometry on cells; CHO-DSP1 cells transfected, permeabilized, immunostained with Cy5-conjugated mAb 93k; n = 3; parent: 100; read off a plot

Row | Variant | screen value [% WT]
1 | chain 3 V457P | ~48
2 | chain 3 E455P | ~110
3 | chain 3 H456P | ~120

Variants of: B1
Experiment: as above
Remark: another data set of the same source

Row | Variant | percent of parent [% WT]
4 | chain 3 V457P | ~18
5 | chain 3 E455P | ~70
6 | chain 3 H456P | ~95

Variants of: B1
Experiment: flow cytometry on cells; CHO-DSP1 cells transfected, permeabilized, immunostained with Cy5-conjugated mAb 93k; n = 2; parent: 100; read off a plot

Row | Variant | percent of parent [% WT]
7 | chain 3 V457A | ~98
8 | chain 3 E455A | ~110
9 | chain 3 H456A | ~98

Variants of: B1
Experiment: as above
Remark: another data set of the same source

Row | Variant | screen value [% WT]
10 | chain 3 V457A | ~120
11 | chain 3 E455A | ~120
12 | chain 3 H456A | ~120
